Measurements from publication PMC7846560, “A promiscuous ancestral enzyme´s structure unveils protein variable regions of the highly diverse metallo-β-lactamase family” (Communications Biology, 2021).

Substrate: O=[N+]([O-])c1ccc(OP(=O)(O)Oc2ccc([N+](=O)[O-])cc2)cc1
Assay: purified protein
Type: biochemical, Ignicoccus hospitalis
Conditions: pH 8, 90 °C, Ni2+ is the required metal (optimal metal conditions)

B1: Igni18 (Ignicoccus hospitalis KIN4/I) (protein)
chain: MTTVKLTYFGHSAFHVEVDGVGIAIDPWITNPLSKTTLEDYLKNFKTDLVVITHAHEDHIGDALEIMRRTGAKFFSIHEIYVDLTQKGFQGIGANIGGPAKLDDVAPGLGIALTPATHSSYDKGVPTGAIIFKDGKALVYHAGDTGLFAEMQFIGELYAPKVALLPIGGHYTMDIEQALLATKLLRPEVVVPMHYNTFPPIRADPNEFKQKVESAGLAKVRVMEPGETVTFEF
notes: homotrimer; 233 protein residues in the structure
B1 showed a Km of 2.5 µM and a kcat of 6.72e-05 s⁻¹.
